Patent publication US20240002498A1 (TENEOBIO, published 2024)
Each block holds one binder with its values, some of them ahead of it.

Experiments:
[1] = target: T1, human Folate Receptor Alpha (FOLR1) on cells (human, UniProt P15328 25-234); assay: flow cytometry, CHO cells stably expressing human FOLR1
T1 construct: whole, on cells; Endogenous on IGROV-1, OVCAR-3, SKOV-3, HT-29 cells; transfected on CHO cells; the cell is named under assay; also called FRα; FRa

[2] = target: T1, human Folate Receptor Alpha (FOLR1) on …; assay: cell binding, CHO cells stably expressing human FOLR1
[3] = target: T2, cyno FOLR1 on CHO cells (cyno (Cynomolgus macaque), UniProt A0A2K5U044 25-234); assay: cell binding, CHO cells stably expressing cyno FOLR1
T2 construct: whole, on cells; also called cyFOLR1
T2 sequence (A0A2K5U044 entry or part of it): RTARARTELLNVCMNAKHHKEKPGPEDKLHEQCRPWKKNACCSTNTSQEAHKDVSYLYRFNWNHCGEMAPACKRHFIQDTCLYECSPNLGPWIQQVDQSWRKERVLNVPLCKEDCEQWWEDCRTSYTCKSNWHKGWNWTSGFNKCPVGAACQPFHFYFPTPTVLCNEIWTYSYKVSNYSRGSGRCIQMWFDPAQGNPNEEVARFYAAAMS

[4] = target: T1, human Folate Receptor Alpha (FOLR1) on …; assay: cell binding, OVCAR-3 cells
[5] = target: T1, human Folate Receptor Alpha (FOLR1) on …; assay: cell binding, IGROV-1 cells
[6] = target: T2, cyno FOLR1 on CHO cells; assay: flow cytometry, CHO cells stably expressing cyno FOLR1
[7] = target: recombinant human FOLR1 (human, UniProt P15328 25-234); assay: BLI, Octet QK-384, recombinant human FOLR1
recombinant human FOLR1, sequence (P15328 25-234 limits assumed): as the sequence (A0A2K5U044 entry or part of it) above, with T2I, R4W, K37R, P146A, Y171H counted along it
Procedure: As used herein, the “Kd” or “Kd value” refers to a dissociation constant determined by BioLayer Interferometry, using an Octet QK384 instrument (Fortebio Inc., Menlo Park, CA) in kinetics mode. For example, anti-mouse Fc sensors are loaded with mouse-Fc fused antigen and then dipped into antibody-containing wells to measure concentration dependent association rates (kon). Antibody dissociation rates (koff) are measured in the final step, where the sensors are dipped into wells containing buffer only. The Kd is the ratio of koff/kon. (For further details see, Concepcion, J, et al., Comb Chem High Throughput Screen, 12 (8), 791-800, 2009).
Table 17 summarizes affinity and epitope bin information for anti-FOLR1 heavy chain antibodies (HCAbs). Column 1 indicates the clone ID of the HCAb. Column 2 indicates the affinity of the HCAb to recombinant human FOLR1 as measured by Bio-layer interferometry (BLI) using an Octet QK-384. Column 3 indicates the epitope bin of HCAb as determined by a competition BLI binding experiment using an Octet QK-384.

[8] = target: T1, human Folate Receptor Alpha (FOLR1) on …; assay: flow cytometry, IGROV-1 cells
[9] = target: T3, CHO_huFOLR2 (human, UniProt P14207); assay: flow cytometry on CHO cells stably expressing human FOLR2, MFI fold over background
T3 construct: stably expressed on CHO cells; also called human FOLR2 on CHO cells; folate receptor beta
T3 sequence (P14207 17-230 limits assumed): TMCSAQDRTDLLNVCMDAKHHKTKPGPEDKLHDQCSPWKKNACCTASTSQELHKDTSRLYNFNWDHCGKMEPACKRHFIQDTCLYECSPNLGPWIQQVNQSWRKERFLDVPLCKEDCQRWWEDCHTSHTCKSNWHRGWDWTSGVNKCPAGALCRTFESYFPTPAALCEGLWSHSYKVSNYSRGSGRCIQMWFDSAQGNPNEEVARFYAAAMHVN
Procedure: Anti-FOLR1 HCAb binding to CHO cells stably expressing human FOLR2 (also known as folate receptor beta, FRβ), and CHO cells stably expressing human IZUMO1R (also known as folate receptor delta, FOLR4, FRδ, JUNO) was analyzed for a number of different clones. Data are presented in FIG. 2, panels A-B, as MFI fold over background. Insets show binding of positive control anti-FOLR2 and anti-IZUMO1R antibodies, respectively, in dark grey, compared to the respective isotype control in light grey.

T1 sequence (P15328 25-234): as the sequence (A0A2K5U044 entry or part of it) above, with T2I, R4W, K37R, P146A, Y171H counted along it

B1: anti-FOLR1 heavy chain antibody (HCAb, UniAb) clone ID 352391 (antibody, V domains shown)
VH: EVQLVESGGGLVQPGGSLRLSCAASGFSFSSYSMKWVRQAPGKGLEWVSYISSSSDTIEYADSVKGRFTISRDNAKNSLYLQMNSLRDEDTAVYYCASVGLDFDYRGQGTLVTVSS
notes: Heavy chain-only antibody (no light chain), F18 family
fold over background MFI [1]: 944 fold over background
EC50 [2]: 5.5 nM
EC50 [3]: 2.7 nM
EC50 [4]: 2.8 nM
EC50 [5]: 2.8 nM
fold over background MFI [6]: 198 fold over background
Kd [7]: 34.8 nM
fold over background MFI [8]: 646 fold over background
binding result [9]: no binding (tested: 100 nM)

B4: anti-FOLR1 heavy chain antibody (HCAb, UniAb) clone ID 352372 (antibody, V domains shown)
VH: EVQLVESGGGLVQPGGSLRLSCAASGFSFSSYSMKWVRQAPGKGLEWVSYISSSSDTIEYADSVKGRFTISRDNAKNSLYLQMNSLRDEDTAVYYCASVGLEFDYRGQGTLVTVSS
notes: as for B1
fold over background MFI [1]: 1130 fold over background
EC50 [2]: 4.6 nM
EC50 [3]: 3.4 nM
EC50 [4]: 4.9 nM
EC50 [5]: 3.6 nM
fold over background MFI [6]: 123 fold over background
Kd [7]: 52.7 nM
fold over background MFI [8]: 506 fold over background
binding result [9]: no binding (tested: 100 nM)

B5: anti-FOLR1 heavy chain antibody (HCAb, UniAb) clone ID 358624 (antibody, V domains shown)
VH: EVQLVESGGGLVQPGGSLRLSCAASGFSFSSYSMKWVRQAPGKGLEWVSYISSSSDTIEYADSVKGRFTISRDNAKNSLYLQMNSLRDDDTAVYYCASVGLDFDYRGQGTLVTVSS
notes: as for B1
fold over background MFI [1]: 1670 fold over background
fold over background MFI [6]: 933 fold over background

B8: anti-FOLR1 heavy chain antibody (HCAb, UniAb) clone ID 358596 (antibody, V domains shown)
VH: EVQLVESGGGLVQPGGSLRLSCAASGFTFSSYSMKWVRQAPGKGLEWVSYIDSSSSIIEYADSVKGRFTISRDNAKNSLYLQMNSLRDEDTAVYYCASVGLDFDYRGQGTLVTVSS
notes: as for B1
fold over background MFI [1]: 1960 fold over background
fold over background MFI [6]: 1340 fold over background

B10: anti-FOLR1 heavy chain antibody (HCAb, UniAb) clone ID 358608 (antibody, V domains shown)
VH: EVQLVESGGGLVQPGGSLRLSCAASGFSFSSYSMKWVRQAPGKGLEWISYISGSSDTIEYADSVKGRFTISRDNAKNSLYLQMNSLRDEDTAVYYCASVGLDFDYRGQGTLVTVSS
notes: as for B1
fold over background MFI [1]: 1280 fold over background
fold over background MFI [6]: 535 fold over background

B12: anti-FOLR1 heavy chain antibody (HCAb, UniAb) clone ID 352365 (antibody, V domains shown)
VH: EVQLVESGGGLVQPGGSLRLSCAASGFSFSSYSMKWVRQAPGKGLEWVSYISSSSSTIEYADSVKGRFTISRDNAKNSLYLQMNSLRDEDTAVYYCATVGLDFDYRGQGTLVTVSS
notes: as for B1
fold over background MFI [1]: 906 fold over background
EC50 [2]: 3.8 nM
EC50 [3]: 3.3 nM
EC50 [5]: 4.6 nM
fold over background MFI [6]: 97.4 fold over background
Kd [7]: 125 nM
fold over background MFI [8]: 594 fold over background
binding result [9]: no binding (tested: 100 nM)

B13: anti-FOLR1 heavy chain antibody (HCAb, UniAb) clone ID 352317 (antibody, V domains shown)
VH: EVQLVESGGGLVKPGGSLRLSCAASGFTFSSYSMNWVRQAPGKGLEWVSSISSGSSYIYYADSVKGRFTISRDNAKNSLYLQMNSLRAEDTAVYYCARDVTSGIAAAGSAFNIRGQGTLVTVSS
notes: Heavy chain-only antibody (no light chain), F14 family
fold over background MFI [1]: 1220 fold over background
EC50 [2]: 5.1 nM
EC50 [3]: 5 nM
EC50 [4]: 3.3 nM
EC50 [5]: 3.9 nM
fold over background MFI [6]: 465 fold over background
Kd [7]: 8.7 nM
fold over background MFI [8]: 711 fold over background
binding result [9]: binds

B14: anti-FOLR1 heavy chain antibody (HCAb, UniAb) clone ID 352477 (antibody, V domains shown)
VH: EVQLVESGGGLVKPGGSLRLSCAASGFTFSSYSMNWVRQAPGKGLEWVSSISSGSSYIYYADSVKGRFTISRDNARNSLYLQMNSLRAEDTAVYYCARDVTSGIAAAGSAFNIRGQGTLVTVSS
notes: as for B13
fold over background MFI [1]: 1590 fold over background
EC50 [2]: 4.2 nM
EC50 [3]: 4.2 nM
EC50 [4]: 2.4 nM
EC50 [5]: 5 nM
fold over background MFI [6]: 362 fold over background
Kd [7]: 12.5 nM
fold over background MFI [8]: 1960 fold over background
binding result [9]: binds

B15: anti-FOLR1 heavy chain antibody (HCAb, UniAb) clone ID 352368 (antibody, V domains shown)
VH: EVQLVESGGGLVKPGGSLRLSCAASGFNFRSFGMTWLRQAPGKGLEWVSSISSGSSYIYYADSVKGRFTISRDNAKNSLYLQMNSLRAEDTAVYYCARDVTSGIAAAGAAFNIRGQGTLVTVSS
notes: as for B13
fold over background MFI [1]: 1230 fold over background
EC50 [2]: 3.8 nM
EC50 [3]: 4.3 nM
EC50 [4]: 3.1 nM
EC50 [5]: 4.1 nM
fold over background MFI [6]: 179 fold over background
Kd [7]: 32.9 nM
fold over background MFI [8]: 548 fold over background
binding result [9]: binds

Second part, the binder after the results:

fold over background MFI [1]: 1710 fold over background
fold over background MFI [6]: 1060 fold over background
B2: anti-FOLR1 heavy chain antibody (HCAb, UniAb) clone ID 358626 (antibody, V domains shown)
VH: EVQLVESGGGLVKPGGSLRLSCAASGFSFSSYSMKWVRQAPGKGLEWVSYISSSSDTIEYADSVKGRFTISRDNAKNSLYLQMNSLRDDDTAVYYCASVGLDFDYRGQGTLVTVSS
notes: as for B1

fold over background MFI [1]: 920 fold over background
fold over background MFI [6]: 3 fold over background
B3: anti-FOLR1 heavy chain antibody (HCAb, UniAb) clone ID 358647 (antibody, V domains shown)
VH: EVQLVESGGGLVQPGGSLRLSCAASGFSFSSYSMNWVRQAPGKGLEWISYISGSSDTIEYADSVKGRFTISRDNAKNSLYLQMNSLRAEDTAVYYCASVGLDFDYRGQGTLVTVSS
notes: as for B1

fold over background MFI [1]: 926 fold over background
fold over background MFI [6]: 590 fold over background
B6: anti-FOLR1 heavy chain antibody (HCAb, UniAb) clone ID 358655 (antibody, V domains shown)
VH: EVQLVESGGGLVQPGGSLRLSCAASGFTFSSYSMKWVRQAPGKGLEWISYISGSSDTIEYADSVKGRFTISRDNAKNSLYLQMNGLRDEDTAVYYCASVGLDFDYRGQGTLVTVSS
notes: as for B1

fold over background MFI [1]: 980 fold over background
fold over background MFI [6]: 717 fold over background
B7: anti-FOLR1 heavy chain antibody (HCAb, UniAb) clone ID 358676 (antibody, V domains shown)
VH: EVQLVESGGGLVQPGGSLRLSCAASGFSFSSYSMKWVRQAPGKGLEWVSYISSSSDTIEYADSVKGRFTISRDNAKNSLYLQMNSLRAEDTAVYYCASVGLDFDYRGQGTLVTVSS
notes: as for B1

fold over background MFI [1]: 1410 fold over background
fold over background MFI [6]: 21.7 fold over background
B9: anti-FOLR1 heavy chain antibody (HCAb, UniAb) clone ID 358656 (antibody, V domains shown)
VH: EVQLVESGGGLVQPGGSLRLSCAASGFSFSSYSMNWVRQAPGKGLEWVSYISSSSDTIEYADSVKGRFTISRDNAKNSLYLQMNSLRDEDTAVYYCASVGLDFDYRGQGTLVTVSS
notes: as for B1

fold over background MFI [1]: 1470 fold over background
fold over background MFI [6]: 729 fold over background
B11: anti-FOLR1 heavy chain antibody (HCAb, UniAb) clone ID 358664 (antibody, V domains shown)
VH: EVQLVESGGGLVQPGGSLRLSCAASGFSFSSYSMKWVRQAPGKGLDWVSYISSSSDTIEYADSVKGRFTISRDNAKNSLYLQMNSLRDEDTAVYYCASVGLDFDYRGQGTLVTVSS
notes: as for B1
